Measurements from patent US20210130436A1.
Changes are numbered by the printed parent chain. Names may count otherwise. One block for each binder: values may come before it.

Tests used:
CD112R, Q6DKI7 = biological target: T1, CD112R, Q6DKI7; assay: flow cytometry, cells expressing CD112R, 20 nM; conditions: remark: other sources report otherwise
T1 chain: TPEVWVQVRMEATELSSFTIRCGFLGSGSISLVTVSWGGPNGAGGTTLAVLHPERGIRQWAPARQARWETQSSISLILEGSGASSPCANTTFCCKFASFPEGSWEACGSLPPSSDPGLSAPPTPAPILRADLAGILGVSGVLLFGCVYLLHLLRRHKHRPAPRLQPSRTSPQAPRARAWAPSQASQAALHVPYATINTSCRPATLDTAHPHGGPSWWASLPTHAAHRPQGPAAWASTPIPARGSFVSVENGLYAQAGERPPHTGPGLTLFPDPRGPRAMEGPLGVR

[1] = biological target: PD-1 (PDCD1) (Homo sapiens (Human)) (UniProt Q15116); assay: cell-based or functional assay
CD96 [2] = biological target: T2, CD96 (UniProt P40200); assay: flow cytometry, Fc fusion at 100 nM, CD96-transfected cells
T2 sequence (looked up): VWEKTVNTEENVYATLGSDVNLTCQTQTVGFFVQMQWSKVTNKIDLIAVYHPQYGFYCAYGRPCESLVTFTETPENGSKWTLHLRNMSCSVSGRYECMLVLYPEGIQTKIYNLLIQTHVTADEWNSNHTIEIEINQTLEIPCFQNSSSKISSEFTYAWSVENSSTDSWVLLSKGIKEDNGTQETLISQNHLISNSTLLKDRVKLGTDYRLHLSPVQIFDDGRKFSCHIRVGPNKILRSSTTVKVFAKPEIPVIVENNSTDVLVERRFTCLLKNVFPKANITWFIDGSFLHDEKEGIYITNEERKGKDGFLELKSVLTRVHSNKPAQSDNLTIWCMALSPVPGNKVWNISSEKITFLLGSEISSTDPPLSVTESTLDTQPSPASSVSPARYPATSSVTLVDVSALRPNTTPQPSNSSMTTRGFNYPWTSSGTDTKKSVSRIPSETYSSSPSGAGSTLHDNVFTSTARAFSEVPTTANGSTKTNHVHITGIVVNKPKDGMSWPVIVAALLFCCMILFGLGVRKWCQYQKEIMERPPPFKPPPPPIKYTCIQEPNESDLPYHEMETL

CD96 [3] = biological target: T2, CD96; assay: flow cytometry, MFI ratio to WT CD155 ECD-Fc, CD96-transfected cells
[4] = biological target: T3, CD226 (Homo sapiens (Human)) (UniProt Q15762); assay: flow cytometry on CD226-expressing cells, Fc fusion at 100 nM
T3 sequence: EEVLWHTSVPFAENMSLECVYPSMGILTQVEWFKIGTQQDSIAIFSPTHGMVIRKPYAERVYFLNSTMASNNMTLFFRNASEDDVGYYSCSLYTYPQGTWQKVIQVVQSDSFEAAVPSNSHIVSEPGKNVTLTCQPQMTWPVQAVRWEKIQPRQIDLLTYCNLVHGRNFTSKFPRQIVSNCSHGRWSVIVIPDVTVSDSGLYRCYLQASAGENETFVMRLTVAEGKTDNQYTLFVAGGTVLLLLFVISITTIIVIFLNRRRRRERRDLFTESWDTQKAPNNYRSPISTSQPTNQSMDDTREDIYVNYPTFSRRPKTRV

Sequence of PD-1 (PDCD1) (Homo sapiens (Human)) (Q15116 21-288): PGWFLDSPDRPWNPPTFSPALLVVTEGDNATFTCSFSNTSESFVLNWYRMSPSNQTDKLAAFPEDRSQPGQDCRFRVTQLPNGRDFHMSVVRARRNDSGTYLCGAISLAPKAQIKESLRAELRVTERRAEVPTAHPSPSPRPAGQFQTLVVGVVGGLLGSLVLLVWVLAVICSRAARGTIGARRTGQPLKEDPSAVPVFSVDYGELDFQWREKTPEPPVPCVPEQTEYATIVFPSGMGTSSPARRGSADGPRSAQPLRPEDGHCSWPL

Fold Increase to WT IgV (CD112R, Q6DKI7): 0.75 fold
MFI at 20 nM (CD112R, Q6DKI7): 1250
B1: WT CD112-Fc ECD, Q92692 32-360 (Fc fusion, not shown: a dimerising Fc or GST)
chain: QDVRVQVLPEVRGQLGGTVELPCHLLPPVPGLYISLVTWQRPDAPANHQNVAAFHPKMGPSFPSPKPGSERLSFVSAKQSTGQDTEAELQDATLALHGLTVEDEGNYTCEFATFPKGSVRGMTWLRVIAKPKNQAEAQKVTFSQDPTTVALCISKEGRPPARISWLSSLDWEAKETQVSGTLAGTVTVTSRFTLVPSGRADGVTVTCKVEHESFEEPALIPVTLSVRYPPEVSISGYDDNWYLGRTDATLSCDVRSNPEPTGYDWSTTSGTFPTSAVAQGSQLVIHAVDSLFNTTFVCTVTNAVGMGRAEQVIFVRETPNTAGAGATGG

Fold increase over wildtype PD-L2 IgV-Fc (IFN gamma, MLR) [1]: 1.13 fold
IFN gamma levels pg/mL (MLR) [1]: 1560 pg/mL
B2: PD-L2 I13V/H15Q/T47A/S67L/Q72H/R76G/Q82R/V89D IgV-Fc (Fc fusion, not shown: a dimerising Fc or GST)
chain: SEQLFTVTVPKELYIVEQGSNVTLECNFDTGSHVNLGAITASLQKVENDASPHRERATLLEEQLPLGKALFHIPHVQVGDEGQYRCIIIYGDAWDYKYLTLKVKA

MFI at 100 nM (CD96 [2]): 3320 MFI
Fold ↑ to WT ECD (CD96 [3]): 0.03 fold
B3: variant CD155 IgV-Fc G111R (Fc fusion, not shown: a dimerising Fc or GST)
chain: WPPPGTGDVVVQAPTQVPGFLGDSVTLPCYLQVPNMEVTHVSQLTWARHGESGSMAVFHQTQGPSYSESKRLEFVAARLGAELRNASLRMFGLRVEDEGNYTCLFVTFPQRSRSVDIWLRVL

MFI at 100 nM [4]: 2110 MFI
B4: CD155 P18S/T45S/T61K/S65W/S67A/F91S/G111R IgV-Fc (Fc fusion, not shown: a dimerising Fc or GST)
chain: B3 chain with P18S, T45S, T61K, S65W, S67A, F91S

IFN gamma levels pg/mL (MLR) [1]: 1820 pg/mL
B5: PD-L2 H15Q IgV-Fc (Fc fusion, not shown: a dimerising Fc or GST)
chain: LFTVTVPKELYIIEQGSNVTLECNFDTGSHVNLGAITASLQKVENDTSPHRERATLLEEQLPLGKASFHIPQVQVRDEGQYQCIIIYGVAWDYKYLTLKVKA

IFN gamma levels pg/mL (MLR) [1]: 1080 pg/mL
B6: PD-L2 H15Q/Q82R/V89D IgV-Fc (Fc fusion, not shown: a dimerising Fc or GST)
chain: B5 chain with Q82R, V89D

IFN gamma levels pg/mL (MLR) [1]: 1600 pg/mL
B7: PD-L2 I13V/H15Q/Q82R/V89D IgV-Fc (Fc fusion, not shown: a dimerising Fc or GST)
chain: B5 chain with I13V, Q82R, V89D

IFN gamma levels pg/mL (MLR) [1]: 1210 pg/mL
B8: PD-L2 H15Q/V31M/S67L/Q82R/V89D IgV-Fc (Fc fusion, not shown: a dimerising Fc or GST)
chain: B5 chain with V31M, S67L, Q82R, V89D

IFN gamma levels pg/mL (MLR) [1]: 868 pg/mL
B9: PD-L2 I13V/S67L/V89D IgV-Fc (Fc fusion, not shown: a dimerising Fc or GST)
chain: B5 chain with I13V, Q15H, S67L, V89D

IFN gamma levels pg/mL (MLR) [1]: 1720 pg/mL
B10: PD-L2 I13V/H15Q/V31A/N45S/Q82R/V89D IgV-Fc (Fc fusion, not shown: a dimerising Fc or GST)
chain: B5 chain with I13V, V31A, N45S, Q82R, V89D

IFN gamma levels pg/mL (MLR) [1]: 1190 pg/mL
B11: PD-L2 N32D/S67L/V89D IgV-Fc (Fc fusion, not shown: a dimerising Fc or GST)
chain: B5 chain with Q15H, N32D, S67L, V89D

IFN gamma levels pg/mL (MLR) [1]: 1120 pg/mL
B12: PD-L2 I13V/H15Q/V89D IgV-Fc (Fc fusion, not shown: a dimerising Fc or GST)
chain: B5 chain with I13V, V89D

IFN gamma levels pg/mL (MLR) [1]: 1030 pg/mL
B13: PD-L2 H15Q/S67L/I86T IgV-Fc (Fc fusion, not shown: a dimerising Fc or GST)
chain: B5 chain with S67L, I86T

IFN gamma levels pg/mL (MLR) [1]: 1700 pg/mL
B14: PD-L2 I13V/H15Q/T47A/Q82R IgV-Fc (Fc fusion, not shown: a dimerising Fc or GST)
chain: B5 chain with I13V, T47A, Q82R

IFN gamma levels pg/mL (MLR) [1]: 1220 pg/mL
B15: PD-L2 I13V/H15Q/Q72H/R76G/I86T IgV-Fc (Fc fusion, not shown: a dimerising Fc or GST)
chain: B5 chain with I13V, Q72H, R76G, I86T

IFN gamma levels pg/mL (MLR) [1]: 1170 pg/mL
B16: PD-L2 V89D IgV-Fc (Fc fusion, not shown: a dimerising Fc or GST)
chain: B5 chain with Q15H, V89D

IFN gamma levels pg/mL (MLR) [1]: 1060 pg/mL
B17: PD-L2 H15Q/S67L/Q72H/R76G/V89D IgV-Fc (Fc fusion, not shown: a dimerising Fc or GST)
chain: B5 chain with S67L, Q72H, R76G, V89D

IFN gamma levels pg/mL (MLR) [1]: 1080 pg/mL
B18: PD-L2 I13V/H15Q/T47A/H69L/R76G/V89D IgV-Fc (Fc fusion, not shown: a dimerising Fc or GST)
chain: B5 chain with I13V, T47A, H69L, R76G, V89D

IFN gamma levels pg/mL (MLR) [1]: 1230 pg/mL
B19: PD-L2 S67L/V89D IgV-Fc (Fc fusion, not shown: a dimerising Fc or GST)
chain: B5 chain with Q15H, S67L, V89D

IFN gamma levels pg/mL (MLR) [1]: 1170 pg/mL
B20: PD-L2 F2L/H15Q/D46E/T47A/Q72H/R76G/Q82R/V89D IgV-Fc (Fc fusion, not shown: a dimerising Fc or GST)
chain: B5 chain with F2L, D46E, T47A, Q72H, R76G, Q82R, V89D
